Assay results taken from the supplement of paper PMC6757056.
± gives the standard deviation of the averaged measurements.

B1: library; a variant is named by its letters at N, in order (parent)
chain: GCUGUCACCGGUGCUUGGUACGUUAUAUUCAGCCGGUCUGAUGAGUCUNNNNNNAGACGAAACAGC

Tests used:
(6R,S)-folinic acid [1] = variants of: B1; experiment: normalized RNA/DNA level without ligand (relative to sTRSVctl = 100) (log10 (% of sTRSVctl)); HEK293T overexpressing SLC46A1; higher = less ribozyme self-cleavage, higher mRNA level; details: without (6R,S)-folinic acid; ligand present: no
How it was run: (§1)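 Ribozyme switch library plasmids with mCherry reporters (eGFP in certain ligand experiments) went into HEK293T cells at 4 µg per 6-well well. Where ligand was used, it was applied 1 h before transfection, and total RNA was extracted with EDTA 72 h later for reverse transcription, amplification, barcoding and sequencing. RNA level is the RNA-to-DNA read ratio normalized to a spiked-in non-cleaving sequence or to the leading sequences, then scaled and log-transformed. Scaling was ×100 with log10, the leading set comprised 25 sequences, and the cutoff was ≥100 DNA reads.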

(6R,S)-folinic acid [2] = variants of: B1; experiment: normalized RNA/DNA level with ligand (relative to sTRSVctl = 100) (log10 (% of sTRSVctl)); HEK293T overexpressing SLC46A1; ligand concentration (+) RNA-Seq: 6 mM; higher = less ribozyme self-cleavage, higher mRNA level; details: with (6R,S)-folinic acid; ligand present: yes
How it was run: as §1

Variant | normalized RNA/DNA level without ligand (log10) ((6R,S)-folinic acid [1]) | normalized RNA/DNA level with ligand (log10) ((6R,S)-folinic acid [2])
GCUGUCACCGGUGCUUGGUACGUUAUAUUCAGCCGGUCUGAUGAGUCUCUGAGGAGACGAAACAGC [CUGAGG] | 1.948 ± 0.005 | 2.02 ± 0.029
GCUGUCACCGGUGCUUGGUACGUUAUAUUCAGCCGGUCUGAUGAGUCUCUGAGUAGACGAAACAGC [CUGAGU] | 2.052 ± 0.016 | 2.058 ± 0.015
GCUGUCACCGGUGCUUGGUACGUUAUAUUCAGCCGGUCUGAUGAGUCUGUGAGUAGACGAAACAGC [GUGAGU] | 1.96 ± 0.025 | 2.03 ± 0.025
GCUGUCACCGGUGCUUGGUACGUUAUAUUCAGCCGGUCUGAUGAGUCUUUGAGUAGACGAAACAGC [UUGAGU] | 1.925 ± 0.015 | 1.96 ± 0.025
GCUGUCACCGGUGCUUGGUACGUUAUAUUCAGCCGGUCUGAUGAGUCUAUGAUAAGACGAAACAGC [AUGAUA] | 1.946 ± 0.017 | 2.002 ± 0.019
GCUGUCACCGGUGCUUGGUACGUUAUAUUCAGCCGGUCUGAUGAGUCUCUGAUAAGACGAAACAGC [CUGAUA] | 1.9701 ± 0.00086 | 2.02 ± 0.048
GCUGUCACCGGUGCUUGGUACGUUAUAUUCAGCCGGUCUGAUGAGUCUUUGAUAAGACGAAACAGC [UUGAUA] | 1.978 ± 0.0072 | 2.03 ± 0.029
GCUGUCACCGGUGCUUGGUACGUUAUAUUCAGCCGGUCUGAUGAGUCUAUGAUCAGACGAAACAGC [AUGAUC] | 2.07 ± 0.028 | 2.06 ± 0.032
GCUGUCACCGGUGCUUGGUACGUUAUAUUCAGCCGGUCUGAUGAGUCUCUGAUCAGACGAAACAGC [CUGAUC] | 2.0695 ± 0.0006 | 2.038 ± 0.013
GCUGUCACCGGUGCUUGGUACGUUAUAUUCAGCCGGUCUGAUGAGUCUGUGAUCAGACGAAACAGC [GUGAUC] | 2.03 ± 0.021 | 2.036 ± 0.02
GCUGUCACCGGUGCUUGGUACGUUAUAUUCAGCCGGUCUGAUGAGUCUUUGAUCAGACGAAACAGC [UUGAUC] | 2.051 ± 0.0013 | 2.01 ± 0.022
GCUGUCACCGGUGCUUGGUACGUUAUAUUCAGCCGGUCUGAUGAGUCUCUGAUGAGACGAAACAGC [CUGAUG] | 2.014 ± 0.013 | 2.013 ± 0.014
GCUGUCACCGGUGCUUGGUACGUUAUAUUCAGCCGGUCUGAUGAGUCUGUGAUGAGACGAAACAGC [GUGAUG] | 1.908 ± 0.015 | 1.99 ± 0.035
GCUGUCACCGGUGCUUGGUACGUUAUAUUCAGCCGGUCUGAUGAGUCUCUGAUUAGACGAAACAGC [CUGAUU] | 2.015 ± 0.007 | 2.05 ± 0.052
GCUGUCACCGGUGCUUGGUACGUUAUAUUCAGCCGGUCUGAUGAGUCUGUGAUUAGACGAAACAGC [GUGAUU] | 2.01 ± 0.024 | 2.02 ± 0.022
GCUGUCACCGGUGCUUGGUACGUUAUAUUCAGCCGGUCUGAUGAGUCUUUGAUUAGACGAAACAGC [UUGAUU] | 2.017 ± 0.012 | 2.027 ± 0.013
GCUGUCACCGGUGCUUGGUACGUUAUAUUCAGCCGGUCUGAUGAGUCUCUGCAAAGACGAAACAGC [CUGCAA] | 2.037 ± 0.02 | 2.05 ± 0.025
GCUGUCACCGGUGCUUGGUACGUUAUAUUCAGCCGGUCUGAUGAGUCUGUGCAAAGACGAAACAGC [GUGCAA] | 1.975 ± 0.0071 | 1.999 ± 0.01
GCUGUCACCGGUGCUUGGUACGUUAUAUUCAGCCGGUCUGAUGAGUCUUUGCAAAGACGAAACAGC [UUGCAA] | 1.96 ± 0.0066 | 1.987 ± 0.0035
GCUGUCACCGGUGCUUGGUACGUUAUAUUCAGCCGGUCUGAUGAGUCUCUGCACAGACGAAACAGC [CUGCAC] | 2.037 ± 0.0035 | 2.015 ± 0.014
GCUGUCACCGGUGCUUGGUACGUUAUAUUCAGCCGGUCUGAUGAGUCUGUGCACAGACGAAACAGC [GUGCAC] | 1.935 ± 0.0098 | 2 ± 0.0049
